Assays:
[1] = target: SK.Plg* activator complex of SKC2 (α_(STAB)-βG88-γ_(STAB)) (group A streptococcus (GAS), STAB902 | group G streptococcus (GGS), G88 | not stated)
[2] = target: SK.Plg* activator complex of SKC1 (αG88-β_(STAB)-γG88) (group G streptococcus (GGS), G88 | group A streptococcus (GAS), STAB902 | not stated)

plasminogen (natural protein) showed a K m (µM), proteolytic constants: Plg activation by the SK.Plg* complex against substrate Plg 0.3 to 5.0 µM, S2251 hydrolysis at 405 nm, 37 °C [1] of 3.73 µM and a K m (µM), proteolytic constants: Plg activation by the SK.Plg* complex against substrate Plg 0.3 to 5.0 µM, S2251 hydrolysis at 405 nm, 37 °C [2] of 1.09 µM.

From publication PMC6900475
